In the RNAGym collection of RNA variant scans (doi:10.1073/pnas.2313332121):

B1: TPR t1 (parent)
chain: GACCAAUCUGCCCUCAGAGCUCGAGAACAUCUUCGGAUGCAGAGGAGGCAGGCUUCGGUGGCGCGAUAGCGCCAACGUCCUCAACCUCCAAUGCAUCCCACCACAUGAUGAUGCCUGAAGAGCCUUGGUUUUUUG

Variants of: B1
Assay: polymerase ribozyme fitness, log enrichment relative to wild type (log ratio); higher = more active; in vitro selection for triplet polymerase activity
Summary of the method: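 Streptavidin-bead capture of gel-excised extended constructs, followed by RT-PCR, closed a single triplicate in vitro selection round. That round began by annealing PCR-built, transcribed mutant libraries of each subunit of a heterodimeric triplet polymerase ribozyme with a biotinylated primer, the partner subunit and triplets, then incubating them frozen at −7 °C. After Illumina sequencing of inputs and outputs, genotypes needed ≥10 input reads and ≥1 read per output. Fitness is the base-2 logarithm of genotype enrichment over wild-type enrichment, using inverse-variance-weighted replicate averages.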

| Variant | polymerase ribozyme fitness (log ratio) |
| --- | --- |
| GACCAAUCUGCCCUCAGAGCUCGAGAACAUCUUCGGAUGCAGAGGAGGCAGGUUUCGGUGGCGCGAUAGCGCCAACGUCCUCAACCUCCAAUGCAUCCCACCAUAUGAUGAUGCCUGAAGAGCCUUGGUUUUUUG [C53U C104U] | 0.142 |
| GACCAAUCUGCCCUCAGAGCUCGAGAACAUCUUCGGAUGCAGAGGAGGCAGGUUUCGGUGGCGCGAUAGCGCCAACGUCCUCAACCUACAAUGCAUCCCACCACAUGAUAAGGCCUGAAGAGCCUUGGUUUUUUG [C53U C88A G110A U112G] | -4.23 |
| GACCAAUCUGCCCUCAGAGCUCGAGAACAUCUUCGGAUGCAGAGGAGGCAGGUUUCGGUGACGCGAUAGCGCCAACGUCCUCAACCUCCAAUGCAUCCCACCACCUGAUGAUGCCUGAAGAGCCUUGGUUUUUUG [C53U G61A A105C] | -2.22 |
| GACCAAUCUGCCCUCAGAGCUCGAGAACAUCUUCGGAUGCAGAGGAGGCAGGUUUCGGUGGCGCGAUAGCGCCAACGUCCUCAACCUCCAAUGCAUCCCACCACAUGAUGAUGCCUGAAGAGGCUUGGUUUUUUG [C53U C123G] | 1.61 |
| GACCAAUCUGCCCUCAGAGCUCGAGAACAUCUUCGGAUGCAGAGGAGGCAGGUUUCGGUGGCUCGAUAGCGCCAACGUCCUCAACCUCCCAUGCAUCCCACCAAAUGAUGAUGCCUGAAGGGACUUGGUUUUUUG [C53U G63U A90C C104A A121G C123A] | -4.29 |
| GACCAAUCUGCCCUCAGAGCUCGAGAACAUCUUCGGAUGCAGAGGAGGCAGGUUUCGGUGGCGCGAUAGUGCCGACGUCCUCAACCUCCAAUGCAUCCCACCACAUGAUGAUGCCUGAAGAGCCUUGGUUUUUUG [C53U C70U A74G] | -3.92 |
| GACCAAUCUGCCCUCAGAGCUCGAGAACAUCUUCGGAUGCAGAGGAGGCAGGUUUCGGUGCCGCGAUAGCGCCAACGUCCUCAACCUCCAAUGCAUCCCACCACAUGAUGAUGCCUGAAGAGCCUUGGUUUUUUG [C53U G61C] | 0.349 |
| GACCAAUCUGCCCUCAGAGCUCGAGAACAUCUUCGGAUGCAGAGGAGGCAGGUUUCGGUGGCGCGAUAGCGCCAACGUGCUCAACCUCCAAUGCAUCCCACCACAUGAUGAUGCCUGAAGAGCCUUGGUUUUUUG [C53U C79G] | -1.2 |
| GACCAAUCUGCCCUCAGAGCUCGAGAACAUCUUCGGAUGCAGAGGAGGCAGGUUUCGGUGGCGUGAUAGCGCCAACGUCCUCAACCUCCAAUGCAUCCCACCACAAGAUGAUGCCUGAAGAGCCUUGGUUUUUUG [C53U C64U U106A] | -1.12 |
| GACCAAUCUGCCCUCAGAGCUCGAGAACAUCUUCGGAUGCAGAGGAGGCAGGUUUCGGUGGCGCGAUAGCGCCAACGUCCUCAAGCUCCAAUGCAUCCCACCACAUGAUGAUGCCUGAAGAGCCUUGGUUUUUUG [C53U C85G] | -2.01 |
| GACCAAUCUGCCCUCAGAGCUCGAGAACAUCUUCGGAUGCAGAGGAGGCAGGUUUCGGUGGCGCGAUAGCGUCAACGUCCUGAACCUCCAAUGCAUCCCACCACAUGAUGAUGCCUGAAGAGGCUUGGUUUUUUG [C53U C72U C82G C123G] | -0.45 |
| GACCAAUCUGCCCUCAGAGCUCGAGAACAUCUUCGGAUGCAGAGGAGGCAGGUUUCGGUAGCGCGAUAGCGCCCACGUCCUCAACCUCCAAUGCAUCCCACCACAUGAUGAUGCCUGAAGAGCCUUGGUUUUUUG [C53U G60A A74C] | -0.941 |
| GACCAAUCUGCCCUCAGAGCUCGAGAACAUCUUCGGAUGCAGAGGAGGCAGGUUUCGGUGGCGCGAUAGCGCCAACGUCCUCAACCUCCAAUGCAUUCCACCACAUGAUGAUGCCUGAAGAGCCUUGGUUUUUUG [C53U C97U] | -0.844 |
| GACCAAUCUGCCCUCAGAGCUCGAGAACAUCUUCGGAUGCAGAGGAGGCAGGUUUCGGUGGCGCGAUAGAGCCAACGUCCUCACCCUCCAAUGCAUCCCUCCACAUGAUGAUGCCUGAAGAGCCUUGGUUUUUUG [C53U C70A A84C A100U] | -3.17 |
| GACCAAUCUGCCCUCAGAGCUCGAGAACAUCUUCGGAUGCAGAGGAGGCAGGUUUCGGUGGCGCGAUAGCGCCAACGUCUUCAACCUCCAAUGCAUCCCACCACAUGAUGAUGCCUGAAGAGCCUUGGUUUUUUG [C53U C80U] | -0.665 |
| GACCAAUCUGCCCUCAGAGCUCGAGAACAUCUUCGGAUGCAGAGGAGGCAGGUUUCGGUGGCGCGAUAGCGCCAACGUCUCCAACCUCCAAUGCAUCCCACCACAUGAUGAUGCCUGAAAAGCCUUGGUUUUUUG [C53U C80U U81C G120A] | -3.73 |
| GACCAAUCUGCCCUCAGAGCUCGAGAACAUCUUCGGAUGCAGAGGAGGCAGGUUUCGGUGGCGCGAUAGCGCCAACGUCCUCAACCUCCAAUGCAUCCUACCACAUGAUGAUGCCUGAAGAGCCUUGGUUUUUUG [C53U C99U] | -2.93 |
| GACCAAUCUGCCCUCAGAGCUCGAGAACAUCUUCGGAUGCAGAGGAGGCAGGUUUCGGUGGCGCGAUAGCGACAACGUCCUCAACCUCCAAUGCAUCCCACCACAUGAUGAUGCCUGAAGAGCCUUGGUAUUUUG [C53U C72A U130A] | -0.183 |
| GACCAAUCUGCCCUCAGAGCUCGAGAACAUCUUCGGAUGCAGAGGAGGCAGGUUUCGGUGGCGCGAUAGCGACAACGUCCUCAACCUCCAGUGCAUCCCACCACAUGAUGAUGCCUGAAGAGCCUUGGUUUAUUG [C53U C72A A91G U132A] | 0.186 |
| GACCAAUCUGCCCUCAGAGCUCGAGAACAUCUUCGGAUGCAGAGGAGGCAGGUUUCGGUGGCACGAUAGCGCCAACGUCCUCAACCUCCAAUGCAUCCCACCACAUGAUGAUGCCUGAAGAGCCUUGGUUUUUUG [C53U G63A] | -1.18 |
| GACCAAUCUGCCCUCAGAGCUCGAGAACAUCUUCGGAUGCAGAGGAGGCAGGUUUCGGUGGCGCGAUAGCGCGAACGUCCUCAACCUCCAAUGCAUCCCACCACAUGAUGAUCCCUGAAGAGCCUUGGUUUCUUG [C53U C73G G113C U132C] | -3.47 |
